{"source": "paper PMC11169542", "about": "“A probe for NIR-II imaging and multimodal analysis of early Alzheimer’s disease by targeting CTGF” (Nature Communications, 2024)", "key": {"[1]": {"experiment": "Absolute quantum yield, integrated sphere technique", "format": "physicochemical", "description": "Figure R6. Stability of DGC in AD brains. Monitoring fluorescence intensity of DGC in brain of WT mice and 3-month-old APP/PS1 mice for 24 h (left). In vivo and ex vivo NIR-II imaging of brains after DGC injected for 24 h (right).\nThe absolute quantum yield (QY) of DGC probe was measured to be ~0.7% using an […]\nfor biological applications. Although this QY is not high, but sufficient to produce a bright signal in the AD mouse brain for detection in vivo in this study.\nReviewer 3: The co-localization coefficient should be calculated in Figure 2d. […]\nwas calculated by Image J software. The co-localization coefficient (Pearson's correlation coefficient) of DGC and CTGF antibodies in Figure 2d was 0.946 (Fig. R15).\nFigure R15. The co-localization coefficient (Pearson's correlation coefficient) of DGC and CTGF […]"}, "[2]": {"tested_on": "CTX TNA2 cells", "experiment": "Cytotoxicity of DGC (CCK-8)", "format": "cell-based", "design": "key: viability relative to control cells (control = 1)", "settings": "200 μM (Au content), 24 h, CCK-8, normalized to control"}, "[3]": {"tested_on": "CTGF", "experiment": "Quantitating CTGF in DGC-labelled cells by ICP-MS", "format": "cell-based", "description": "After U87MG, SH-SY5Y, and CTX TNA2 cells were imaged by a laser confocal microscopy system, these cells labeled with DGC were quantitatively analyzed by an ICP-MS system (Thermo Elemental X7, USA). Each cell group in the glass vials was digested by adding 5 mL aqua regia (HCl: HNO3 = 3:1) overnight. Subsequently, the aqua regia was heated to evaporate to the last drop to be diluted by a mixture of 2% HNO3 and 1% HCl. A standard curve of Au was made to quantify the concentration of Au in different cells. ICP-MS was used to test the Au signal in triplicates."}, "[4]": {"tested_on": "U87MG cells", "experiment": "Cytotoxicity of DGC (CCK-8)", "format": "cell-based, human", "design": "key to Cell viability: viability relative to control cells (control = 1)", "settings": "for Cell viability: 24 h, CCK-8, normalized to control", "description": "U87MG, SH-SY5Y, and CTX TNA2 cells were seeded into 96-well plates at a density of 5 × 10^3 cells per well and were incubated at 37 °C for 24 h. […] Next, 10 µL of a colorimetric Cell Counting Kit (CCK-8) reagent diluted with 100 µL medium was added to each well, and incubated for 30 min, The absorbance at 450 nm was measured using a microplate reader (Molecular Devices, San Jose, CA, USA). The relative viability was normalized to control cells. The experiment was performed in triplicates."}, "[5]": {"experiment": "In vitro stability of DGC fluorescence on storage in PBS", "format": "physicochemical", "settings": "two weeks storage in PBS", "text": "In this manuscript, Lu et al. reported a novel gold cluster-based probe modified with peptides that specifically bind to connective tissue growth factor (CTGF). Owing to the elevated expression of CTGF is an upstream regulator of amyloid-beta (Aβ) plaque, the probe holds a promise for potential application in the early diagnosis of Alzheimer's disease (AD). The unique feature of this probe is their capacity to emit near-infrared (NIR) light, rendering them suitable for in vivo imaging. Moreover, their ability to […]\nThe article is well-crafted, and the experiments convincingly highlight the distinctive properties of the newly developed probe. […]\nfollowing concerns are addressed.\nReviewer 1: How long can the fluorescence last in the cells and AD brain, or how stable is the fluorescence of the probe?\nResponse: We monitored the fluorescence changes of DGC probes in vitro, in U87MG cells and in brain of APP/PS1 mice, respectively. […]\ncultured U87MG cells, DGC probe could be well internalized, and obvious […]\nmedium for 72 h (Fig R5). In APP/PS1 mice, we detected temporal changes of luminescence from DGC in the brain by in vivo NIR-II imaging. […]\nFigure R6. […] Monitoring fluorescence intensity of DGC in brain of WT mice and 3-month-old APP/PS1 mice for 24 h (left). […]"}, "[6]": {"experiment": "Biosafety: blood tests and organ pathological analysis (H&E staining)", "format": "in vivo", "settings": "C57BL/6J mice, 20 mg/kg DGC, vs untreated normal mice", "text": "In order to clarify the NIR-II signal in AD brains when in vivo imaging is arisen from the DGC probe that bound to CTGF, we selected 3-month-old APP/PS1 mice representing early-stage AD and the age-matched WT mice as control to performed ex vivo multimodal analysis of the brain sections. […] To exclude the influence of vascular retention, we emptied the cerebral vessels by cardiac perfusion and performed ex vivo imaging of the brains. […] For brain sections made from AD mice after tail vein injection of DGC, the red fluorescence observation and LA-ICP-TOF-MS of DGC, as well as a POD-like catalysis test were performed. […] In Fig. 6c, the colocalization of DGC (red fluorescence) and CTGF (green fluorescence) on the ex vivo brain sections confirmed the specificity of DGC targeting CTGF in vivo. To further identify the cellular target of DGC in the brain of APP/PS1 mice, we carried out immunofluorescence staining on the ex vivo brain sections after tail vein injection of DGC where cell-specific fluorescent antibodies for microglia (Iba 1), neurons (NeuN), vascular endothelial cell (CD31) and reactive astrocytes (GFAP) were applied. […] The biosafety of DGC in C57BL/6J mice under the NIR-II imaging condition was evaluated by blood tests (blood cells and biochemical analysis) and organ pathological analysis (H&E staining)."}}, "note": "Entries after “also recorded” stand apart in the source; their conditions may differ. Ends that are not written are not given here."}
{"substance": "DGC: CTGF-targeting peptide-coated gold nanocluster: one Au26 gold nanocluster coated by eight DAG cyclic peptides, NIR-II and red fluorescence (CDAGRKQKC; also: cyclic peptide, ring not given here, eight peptides on one Au26 nanocluster via Cys Au-S bonds)", "values": [{"measurement": "absolute quantum yield (QY)", "setting": "[1]", "result": "~ 0.7%"}, {"measurement": "Cell viability", "setting": "[2]; replicate 1", "result": 1.4709}, {"measurement": "Cell viability", "setting": "[2]; replicate 2", "result": 1.567}, {"measurement": "Cell viability", "setting": "[2]; replicate 3", "result": 1.589}, {"measurement": "ICP-MS DGC (Au) content per cell", "setting": "[3]; DGC-labelled CTX TNA2 cells, replicate 1", "result": 1.359}, {"measurement": "ICP-MS DGC (Au) content per cell", "setting": "[3]; DGC-labelled CTX TNA2 cells, replicate 2", "result": 1.246}, {"measurement": "ICP-MS DGC (Au) content per cell", "setting": "[3]; DGC-labelled CTX TNA2 cells, replicate 3", "result": 1.418}, {"measurement": "ICP-MS DGC (Au) content per cell", "setting": "[3]; DGC-labelled SH-SY5Y cells, replicate 1", "result": 3.579}, {"measurement": "ICP-MS DGC (Au) content per cell", "setting": "[3]; DGC-labelled SH-SY5Y cells, replicate 2", "result": 3.885}, {"measurement": "ICP-MS DGC (Au) content per cell", "setting": "[3]; DGC-labelled SH-SY5Y cells, replicate 3", "result": 3.913}, {"measurement": "ICP-MS DGC (Au) content per cell", "setting": "[3]; DGC-labelled U87MG cells, replicate 1", "result": 9.5834}, {"measurement": "ICP-MS DGC (Au) content per cell", "setting": "[3]; DGC-labelled U87MG cells, replicate 2", "result": 9.979}, {"measurement": "ICP-MS DGC (Au) content per cell", "setting": "[3]; DGC-labelled U87MG cells, replicate 3", "result": 9.837}, {"measurement": "Cell viability", "setting": "[4]; 5 μM (Au content), replicate 1", "result": 1.188}, {"measurement": "Cell viability", "setting": "[4]; 5 μM (Au content), replicate 2", "result": 1.205}, {"measurement": "Cell viability", "setting": "[4]; 5 μM (Au content), replicate 3", "result": 1.21}, {"measurement": "Cell viability", "setting": "[4]; 10 μM (Au content), replicate 1", "result": 1.185}, {"measurement": "Cell viability", "setting": "[4]; 10 μM (Au content), replicate 2", "result": 1.16}, {"measurement": "Cell viability", "setting": "[4]; 10 μM (Au content), replicate 3", "result": 1.163}, {"measurement": "Cell viability", "setting": "[4]; 20 μM (Au content), replicate 1", "result": 1.112}, {"measurement": "Cell viability", "setting": "[4]; 20 μM (Au content), replicate 2", "result": 1.134}, {"measurement": "Cell viability", "setting": "[4]; 20 μM (Au content), replicate 3", "result": 1.136}, {"measurement": "Cell viability", "setting": "[4]; 50 μM (Au content), replicate 1", "result": 1.152}, {"measurement": "Cell viability", "setting": "[4]; 50 μM (Au content), replicate 2", "result": 1.117}, {"measurement": "Cell viability", "setting": "[4]; 50 μM (Au content), replicate 3", "result": 1.103}, {"measurement": "Cell viability", "setting": "[4]; 100 μM (Au content), replicate 1", "result": 1.07}, {"measurement": "Cell viability", "setting": "[4]; 100 μM (Au content), replicate 2", "result": 1.085}, {"measurement": "Cell viability", "setting": "[4]; 100 μM (Au content), replicate 3", "result": 1.085}, {"measurement": "Cell viability", "setting": "[4]; 200 μM (Au content), replicate 1", "result": 1.067}, {"measurement": "Cell viability", "setting": "[4]; 200 μM (Au content), replicate 2", "result": 1.053}, {"measurement": "Cell viability", "setting": "[4]; 200 μM (Au content), replicate 3", "result": 1.071}, {"measurement": "Cell viability", "setting": "[4]; 500 μM (Au content), replicate 1", "result": 1.0892}, {"measurement": "Cell viability", "setting": "[4]; 500 μM (Au content), replicate 2", "result": 1.102}, {"measurement": "Cell viability", "setting": "[4]; 500 μM (Au content), replicate 3", "result": 1.058}, {"measurement": "cytotoxicity", "setting": "[4]; DGC incubation 24 h, CCK-8", "result": "did not cause any obvious cytotoxicity"}, {"measurement": "fluorescence intensity change on storage", "setting": "[5]", "result": "decreased only slightly; also recorded: decreased only"}, {"measurement": "abnormalities in blood parameters and major organs", "setting": "[6]", "result": "did not induce any abnormalities in blood parameters and major organs"}]}
